Data from the nanobody polyreactivity screen of Harvey et al. (2022).

Assay: yeast display, Sf9 membrane polyspecificity reagent, FACS + sequencing; frameworks hold sequencing errors
Summary of the method: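 Synthetic nanobody libraries on Saccharomyces cerevisiae BJ5465 were galactose-induced for 36–48 hours, stained 1 hour at 4 °C with 10% biotinylated, detergent-solubilized Sf9 membrane reagent and enriched on streptavidin microbeads. FACS then separated cells into low and high (top ~1%) gates by anti-HA (expression) and streptavidin (reagent binding) fluorescence. Genes were colony-PCR amplified, MiSeq 2 × 250 sequenced and CDR-length filtered. A clone's polyreactivity label is that of its gate of origin.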

Sequence	polyreactivity (PSR sort gate)
QVQLEESGAGVVQAGGSLRLSCAASGRTFQYNAMGWYRPAPGTERELVAAISSSGGSTYYADSVKGRFTISRDNAKNTVYFQMNSLNPEDTAVYYCNAYSQSWNFYGVGDYWGQGTQVTVSS	low polyreactivity
QVQLVESGGGLVQAGGSLRLSCAASGSIFNYYAMGWYRQAPGKERELVAAITTSGGRTYYADSVKGRFTISRDNAKNTVYLQMNSLKPEDTAVYYCAARGYGRRAYVYRYDYWGQGTQVTVSS	high polyreactivity
QVQHVESGGGLVQAGGSLRLSCAASGRTFARYTMGWYRQAPGKERELVAVISRSGGSTYYADSVKGRFTISRDNAKNSVYLQMNSVKPEDTAVYYCAAGDFVVSTLEYYYWGQGTQVTVSS	high polyreactivity
QVQLVESGGGLVQAGGSLRLSCAASGRTLVYYAMGWYRQAPGKERELVAAISWSGSRTYYADSVKGRFTISRDNAKNTVYLQMNSLKPEDTAVYYCATLTFRTNGTMDYWGQGTQVTVSS	high polyreactivity
QVQLVESGGGLVQAGGSLRLSCAASGFIFWLYAMGWYRQAPGKERELVAAISRSGGRTYYADSVKGRFTISRDNAKITVYLQMNSLKPEDTAVYYFAKVDNYKSYPYDYWGQGTQVTVSS	high polyreactivity
QVQLVESGGGLVKAGGSLRLSCAASGITFWRYTMGWYRQAPGIERELVAAITSRGGNTYYADSVKGRFTISRDNAKNTVYLQLNSLKPEDTAVNYCNADRYNKYWYDYWGQGTQVTVSS	high polyreactivity
QVHLVESGGGLVQAGGILRLSCAASGSTFGYYAMGWYRQAPGKERELVAAITWSGDSTYADSVKGRFTISRDNAKNTVYLQMNSLKPEDTAVYYCARRGFLGHWPRPSYDYWGQGTQVTVSS	low polyreactivity
QVQLVESGGGLVQAGGSLRLSCAASGFTFQYYAMGWYRQAPGKERELVAAISWGGGSTYYADSVKGRFTISRDNAKNTVYLQMNSLKPEDTAVYYCNAYEYLSAGYDYWGQGTQVTVSS	low polyreactivity
QDQLVESGGGLVQAGGSLRISCAASGRIFRRNTMGRYRQAPGKERELVADINSSDGDTYYADSVKGRFTISRDNAKNTVYLQMNSLKPEDTAVYYCAADLSPLGEMDYWGQGTQVTVSS	low polyreactivity
QVQLVESGGGLVQAGGSLRLSCAASGFILYTYAMGWYIQAPGKERELVADIDSGDGTYYADSVKGRFTISRDNAKNTVYLQMNSLKPEDTAVDYCAADYGGASEYGYWGQGTQVTVSS	low polyreactivity
QVQLVESGGGLVQAGGSLRLSCAASGFIFQRYAMGWYRQAPGKERELVAAISSGGGTNYADSVKGRFTISRDNAKNTVYLQMNSLKPEDTAVYYCARPYYVYSQSSDYWGQGTQVTVSS	low polyreactivity
HVQLQESGGGLVQAGGSLRLICAASGNIVDDDIMGWYRQAPGKEREIVASITDGGSTNYADSLKGRFTISRDNAKNTVYQQMNILIREVTAVYYCAAIAYPDIPTYFVYDSDSFYWGQGTQETVSS	high polyreactivity
QVQLVESGGGLVQAGGSLRLSCAASGRIFNFYAMGWYRQAPGKERELVAAITRGGSTYYADSVKGRFTISRDNAKNTVYLQMNSLKPEDTAVYYCNALNRYYDGDYYYWGQGTQVTVSS	high polyreactivity
QVQLVESGGGLVQAGGSLRLSCAASGFIFSVNAMGWYRQAPGKERELVAAISTNTGRTYYADSVKGRFTISRDNAKNTVYLQMNSLKPEDTAVYYCAADGPTYWAVRGDYWGQGTQVTVSS	low polyreactivity
QVQLVESGGGLVQAGGSLRLSCAASGSIFRLNALGWYRQAPGKERELVAAITWSDSSTYYADSVKGRFTISRDNAKNTVYLQMNSLKQEDTAVYYCAADPQSYKYDYWGQGTQVTVSS	low polyreactivity
QVKLLDSGGGLVQAGGSLRLTSAASGRIFYTNAMGWYRQEPGKERELVAVISWGGDTTYYADSVKGRFTISRDNAKNTVYLQMTSLKPEDTAVYYCNADWGATYEIYDSWGQGTQVTVST	low polyreactivity
QVQLVESGGGLVQAGGSLRLSCAASGRTFPYNAMGWYRQAPGKERELVAAISSGGSTNYADSVKGRFTISRDNAKNTVYLQMNSLKPEDTAVYYCAVTGWPRYTWYSYGYWGQGTQVTVSS	low polyreactivity
QVQLQESGGGLVQAGGSLRLSCAASGTISPLPAMGWYRQAPGKEREFVAGIDTGAITNYADSVKGRFTISRDNAKNTVYLQMNSLKPEDTAVYYCAVFPAAYDYYERYYTYWGQGTQVTVSS	high polyreactivity
QVQLVESGGGLVQAGGSLRLSCAASGFIFRYYAMGWYRQAPGKERELVAAITKSGGRTFYADSVKGRFTISRDNAKNTVYLQMNSLKPEDTAVYYCAARANGRDDYWGQGTQVTVSS	high polyreactivity
QGQHVESGGGLVQAGGRLRLSCAASGSILSGYEMGRSREAPGKERELVASITRGGSTYYADSVKGRFTISRDNANNSVYFQMNSLNPEDPAVYDCARYGSKNRRLGMDYWGQGTQVTVSS	low polyreactivity
QVQLVESGGGLVQAGGSLRISCAASGSIFDPYAMGWYRQAPGKERELVAAITSGGSTYYADSVKGRFTISRDNAKNTVYLQMNSLIPEDTAVYYCAKDFDIYYSKYDYWGQGTQVTVSS	low polyreactivity
QVQLVESGGGLVQAGGSLRLSCAASGITFGRNTMGWYRQAPGKERELVAAIRSGGSTNYADSVKGRFSISRDNAKNTVYLLMNSLKPEDPAVYYWNAQPWVRFWPYDYWGQGTQVTVSS	low polyreactivity

Sequence	polyreactivity (PSR sort gate)
QVQLVESGGGLVQAGGSLRLSCAASGRTIRYYAMGWYRQAPGKERELVAAITVTVTSTFYADSVKGRFTISRDDAKNTVYLQMNSLKPEDTAVYYCAKVDRQSPGQYYYWGQGSQVTVSS	low polyreactivity
QVQLVESGGGLVQAEGSLRLSCAASGNTFERNTMGWYRQATGKERELVAAISWSGGRTYYADSVKGRFTISRDNAKNTVYLQLNSLKPEDTAVYYCAATNYYYGAGYYYWGQGTQVTVSS	high polyreactivity
QVQLVESGGGLVQAGGSLRLSCAASGSTFHIYAMGWYRQAPGKERELVAGITRGSTYYADSVKGRFTISRDNAKNTVYLQMNSLKPEDTAVYYCAADVYGFRYSESDYWGQGTQVTVSS	low polyreactivity
QVQLVESGGGLVQAGGSLRLSCAASGSTFSSNVMGWYRQAPGKERELVAAITGSGSRTYYADSVKGRFTISRDNAKNTVYLQMNSLKPEDTAVYYCNTKGRSRETYGYDYWGQGTQVTVSS	high polyreactivity
QVQLVESGGGLVQSGGSLRLSCAAYGNFFANNSMGWYRQAPGKERELVAAISQSGGNTYYADSVKGRFTISRDNAKNTVYLQMNSLKPEDTADYYCNAKTYGYNYDSWGQGTQVTVSS	low polyreactivity
QVQLVESGGGLVQAGGSLRLSCAASGRTFTYYAMGWYRQAPGKERELVAAISSRGGSTYYADSVKGRFTISRDNAKNTVYLQMNSLNPEDTAVYYCAAVHRFTRASRWPDFDYWGQGTQVTVSS	high polyreactivity
QVQLVESGGGLVQAGGSLRLSCAASGFILDYNTMGWYRQAPGKERELVAAISSSGDTTYYADSVKGRFTISRDNAKNTVYLQMNSLKPEDTAVYYCGREYGDGYEYWGQGTQVTVSS	low polyreactivity
QVQLVESGGGLVQAGGSLRLSCAASGIIFPRYAMGWYRQAPGKERELVAAITIGGRTNYADSVKGRFTISRDNAKNTVYLQMNSLKPEDTAVYYCAAQTYVPYYEYDYWGQGTQVTVSS	low polyreactivity
QVQLVESGGGLVQAGGSLRLSCAASGRIFLGYAMGWYRQAPGKERELVAAITFSGGSTYYADSVKGRFTISRDNAKNTVYLQMNSLKPEDTAVYYCAAPRLRRTYPRNRYDYWGQGTQVTVSS	low polyreactivity
QVQLVESGGGLVQAGGSLRLSCAASGFIFVYYTMGWYRQAPGNERELVAAISVSGGRTYYADSVKGRFTISRDNAKNTVYLQMNSLKPEDTAVYYCNARNGYGIGYWGQGTQVTVSS	high polyreactivity
QVQLVESGGGLVQAGGSLRLSCAASGFIFPDNAMGWYRQAPGKERELVATITSGGNTYYADSVKGRFTISRDNAKNTVYIQMNSLKPEDTAVYYSAAEWDYYDYDWYIAWTIDYWGQGTQVTVSS	low polyreactivity
QVQLVESGGGLVQAGGSLRLSCAASGFIFWSYAMGWYRQAPGKERELVAAINTSTGRTYYADSVKGRFTISRDNAKNTVYLQMNSLKPEDTAVYYCAADLPWGPLFDYWGQGTQVTVSS	low polyreactivity
QVQLVESGGGLVQAGGSLRLSCAASGFIFKPYAMGWYRQAPGKERELVAAITYSGSSTYYADSVKGRFTISRDNAKNTVYLQMNSLKPEDTAVYYCAARDWSHPRRLFYWGQGTQVTVSS	high polyreactivity
QVQLVESGGGLVQAGGSLRLSCAASGRTFPAYTMGWYRQAPGKERELVAAINWSGGSTYYADSVKGRFTISRDNAKNTVYLQMNSLKPEDTAVYYCARTSHYYGFRSYGTLDYWGQGTQVTVSS	high polyreactivity
QVQLVESGGGLVQAGGSLRLICAASGRTFRDYAMGWYRQAPGKEWELVAVISRRGSSTYYADSVKGRFTISRDNAKNTVYLQMNSLKPEDTAVYYCARVPTTWRYAYGYWGQGTQVTVSS	high polyreactivity
QVQLVESGGGLVQAGGSLRLSCAASGSILPYYAMGWSRQAPGKERELVATITDGTDTYYADSVKGRFTISRDNAKNTVYLQMNSLKPEDTAVYYCKADGYVYYMHEDYWGQGTQVTVSS	low polyreactivity
QVQLVESGGGLVQAGGSLRLSCAASGFTYRNYAMGWYRQAPGKERELVAAISRGGGSTYYADSVKGRFTISRDNAKNTVYLQMNSLKPEDTAVYYCAVAYPFYVKTLFSPEADYNYWGQGTQVTVSS	high polyreactivity
QVQLVESGGGIVQAGVILRLSCAATGITFWNNAMRWYRQARGKERELVATISSNGGRTYYADSVKGRFTISRDNAKNTVYLQMNSLKPEDTAVYYCKARQVLYGLYLRAYPYEYWGQGTQVTVSS	low polyreactivity
QVQLVESGGGLVQAGGSLRLSCAASGSTFSRYTMGWYRQAPGKERELVAAIRRSGASTYYADSVKGRFTISRDNAKITVYLQMNSLKPEDTAVYYCAVGRYRYGYWGHGTQVTVSS	high polyreactivity
QVQLVESGGGLVQAGGSLRLSCAASGRIFGPYAMGWYRQAPGKERELVAASSTDYADSVKGRFTISRDNAKNTVYLQMNSLKPEDTAVYYCAKVGFGIPGGFYYWGQGTQVTVSS	low polyreactivity
QVQLVESGGGLVQAGGSLRLSCAASGFTFSNYAMGWYRQAPGKERELVAAISRSGGSTYYADSVKGRFTISRDNAKNTVYLQMNSLKPEDTAVYYCNADRYRVWYRRYDYWGQGTQVTVSS	high polyreactivity
